Source: US20220177597A1 (OSSIANIX, published 2022)

Experiments:
[1] = biological target: mouse CD98hc ectodomain (recombinant) (mouse) (UniProt P10852); assay: ELISA, VNAR-hFc in Expi293 medium on coated ectodomain
[2] = biological target: human CD98hc ectodomain (recombinant) (human) (UniProt P08195); assay: as above
human serum albumin = biological target: T1, human serum albumin (human, UniProt P02768 25-609); assay: ELISA, VNAR-hFc in Expi293 medium on coated HSA (negative control)
T1 construct: Negative control antigen in ELISA; also called HSA
Description: The clones were reformatted as bivalent VNAR-Fc by cloning the VNARs into the commercial pFUSE vector (pFUSE-hIgG1e3-Fc2). The Fc region of the protein contained CH2 and CH3 domains with the hinge that served as a flexible spacer between the two parts of the Fc-fusion protein. N-termini of the construct contained the IL2 signal sequence to allow secretion. A HEK Expi293 expression system was used to transiently express the proteins. The VNAR clones were expressed as Fc formats in mammalian cells in small (1 ml) scale in 96-well plates. Media was collected and used directly for ELISA in order to confirm binding to the ectodomain of mouse and human CD98hc. Human serum albumin was used as the negative control.

[3] = biological target: mouse CD98hc ectodomain (recombinant) (mouse) (UniProt P10852); assay: ELISA, purified VNAR-Fc titrated on plate-coated CD98hc (1 ug/mL)
[4] = biological target: human CD98hc ectodomain (recombinant) (human) (UniProt P08195); assay: as above

T1 sequence (P02768 25-609 limits assumed): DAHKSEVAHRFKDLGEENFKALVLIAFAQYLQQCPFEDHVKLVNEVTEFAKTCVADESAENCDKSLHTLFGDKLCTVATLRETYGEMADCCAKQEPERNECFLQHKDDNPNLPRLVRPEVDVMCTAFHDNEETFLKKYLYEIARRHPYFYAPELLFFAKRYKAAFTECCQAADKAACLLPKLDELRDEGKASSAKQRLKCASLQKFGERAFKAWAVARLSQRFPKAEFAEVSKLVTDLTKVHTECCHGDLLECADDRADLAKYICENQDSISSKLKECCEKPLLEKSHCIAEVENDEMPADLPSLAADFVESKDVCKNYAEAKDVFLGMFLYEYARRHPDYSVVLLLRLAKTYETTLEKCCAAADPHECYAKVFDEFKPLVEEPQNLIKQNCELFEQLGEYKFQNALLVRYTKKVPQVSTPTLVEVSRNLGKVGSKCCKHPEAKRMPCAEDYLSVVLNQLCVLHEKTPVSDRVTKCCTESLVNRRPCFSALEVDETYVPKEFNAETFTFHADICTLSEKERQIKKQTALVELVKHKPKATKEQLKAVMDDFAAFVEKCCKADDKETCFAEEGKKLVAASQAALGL
Sequence of human CD98hc ectodomain (recombinant) (human) (P08195 206-630): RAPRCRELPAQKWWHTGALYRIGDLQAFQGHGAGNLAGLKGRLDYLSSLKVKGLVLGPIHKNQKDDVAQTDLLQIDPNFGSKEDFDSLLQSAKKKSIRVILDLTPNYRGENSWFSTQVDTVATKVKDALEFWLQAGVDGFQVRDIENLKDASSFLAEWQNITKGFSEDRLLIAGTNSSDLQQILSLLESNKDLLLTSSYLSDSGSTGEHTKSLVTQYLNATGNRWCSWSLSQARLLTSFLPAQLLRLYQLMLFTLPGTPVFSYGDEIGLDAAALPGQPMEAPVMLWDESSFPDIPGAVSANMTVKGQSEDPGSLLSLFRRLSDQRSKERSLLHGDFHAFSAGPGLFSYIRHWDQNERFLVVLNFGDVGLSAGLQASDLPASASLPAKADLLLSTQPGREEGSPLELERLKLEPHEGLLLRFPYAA
Sequence of mouse CD98hc ectodomain (recombinant) (mouse) (P10852 100-526): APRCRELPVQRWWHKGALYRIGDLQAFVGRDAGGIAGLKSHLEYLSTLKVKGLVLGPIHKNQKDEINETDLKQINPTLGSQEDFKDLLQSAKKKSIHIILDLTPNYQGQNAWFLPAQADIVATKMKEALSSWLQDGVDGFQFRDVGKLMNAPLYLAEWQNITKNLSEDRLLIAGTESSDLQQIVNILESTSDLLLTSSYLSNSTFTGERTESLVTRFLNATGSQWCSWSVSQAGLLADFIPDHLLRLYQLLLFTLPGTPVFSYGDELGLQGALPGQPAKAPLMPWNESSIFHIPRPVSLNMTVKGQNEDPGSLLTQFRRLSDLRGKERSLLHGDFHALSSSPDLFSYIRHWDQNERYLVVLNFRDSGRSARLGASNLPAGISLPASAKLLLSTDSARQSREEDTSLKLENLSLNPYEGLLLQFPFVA

B1: H6 VNAR-hFc fusion (Fc fusion)
chain: ARVDQTPQTITKEEGESLTINCVLRTHSNALASTSWYRKKSGSTREETISKGGRYVETVNSGSKSFSLRINDLTVEDSGTYRCNVYAFLEIQPNIYHEFDVYGDGTAVTVNA
notes: Bivalent VNAR-Fc, VNAR N-terminal to human IgG1 Fc; Expi293; not shown: human IgG1 Fc (hinge, CH2, CH3) of vector pFUSE-hIgG1e3-Fc2
[1]
  Binding [relative units] (relative units): 0.186
[2]
  Binding [relative units] (relative units): 3.31
Human serum albumin
  Binding [relative units]: 0.06 relative units
[3]
  EC50: 86 nM
[4]
  EC50: 6 nM

B2: G12 VNAR-hFc fusion (Fc fusion)
chain: ARVDQTPQTITKETGESLTINCVLRDSNCALSSTYWYRKKSGSTNEALISKGGRYVETVNSGSKSFSLRINDLTVEDSGTYRCNVVQDLRDDCFFRDVYGGGTAVTVNA
notes: as for B1
[1]
  Binding [relative units] (relative units): 0.044
[2]
  Binding [relative units] (relative units): 0.044
Human serum albumin
  Binding [relative units]: 0.054 relative units

B3: C6 VNAR-hFc fusion (Fc fusion)
chain: ARVDQTPQTITKETGESLTINCVLRDSNCALSSTYWYRKKSGSTNEALISKGGRYVETVNSGSKSFSLRINDLTVEDSGTYRCNVVYDLRDDCFFRDVYGGGTAVTVNA
notes: as for B1
[1]
  Binding [relative units] (relative units): 0.042
[2]
  Binding [relative units] (relative units): 0.041
Human serum albumin
  Binding [relative units]: 0.052 relative units

B4: B12 VNAR-hFc fusion (Fc fusion)
chain: ARVDQTPRSVTKETGESLTINCVLRDASYALGSTCWYRKKSGSTNEESISKGGRYVETVNSGSKSFSLRINDLTVEDGGTYRCGVARGWRTLNYLCDVRTGEWSCVWRAAACGDGTAVTVNA
notes: as for B1
[1]
  Binding [relative units] (relative units): 0.084
[2]
  Binding [relative units] (relative units): 0.076
Human serum albumin
  Binding [relative units]: 0.081 relative units

B5: A8 VNAR-hFc fusion (Fc fusion)
chain: ARVDQTPQTITKEEGESLTINCVLRRNFQLASTSWYRKKSGSTREETISKGGRYVETVNSGSKSFSLRINDLTVEDSGTYRCNVYGFVEFAKNIVEFIDVYGDGTAVTVNA
notes: as for B1
[1]
  Binding [relative units] (relative units): 0.135
[2]
  Binding [relative units] (relative units): 2.97
Human serum albumin
  Binding [relative units]: 0.065 relative units

B6: G10 VNAR-hFc fusion (Fc fusion)
chain: ARVDQTPQTITKETGESLTINCVLRDSNCALSSTYWYRKKSGSTNEENISKGGRYVETVNSGSKSFSLKINDLTVEDSGTYRCKVVFKLFSGRACAGEKDVYGGGTVVTVNA
notes: as for B1
[1]
  Binding [relative units] (relative units): 0.041
[2]
  Binding [relative units] (relative units): 0.043
Human serum albumin
  Binding [relative units]: 0.051 relative units

B7: F11 VNAR-hFc fusion (Fc fusion)
chain: ARVDQTPQTITKEEGESLTINCVLRGEFYALASTSWYRKKSGSTREETISKGGRYVETVNSGSKSFSLRINDLTVEDSGTYRCNVYGYRIFSPEVKGPNDVYGDGTAVTVNA
notes: as for B1
[1]
  Binding [relative units] (relative units): 0.096
[2]
  Binding [relative units] (relative units): 3.03
Human serum albumin
  Binding [relative units]: 0.072 relative units

B8: G6 VNAR-hFc fusion (Fc fusion)
chain: ARVDQTPQTITKEEGESLTINCVLRVETRALASTSWYRKKSGSTREETISKGGRYVETVNSGSKSFSLRINDLTVEDSGTYRCNVYIRHYSEFTQAPFRDVYGDGTAVTVNA
notes: as for B1
[1]
  Binding [relative units] (relative units): 0.041
[2]
  Binding [relative units] (relative units): 0.042
Human serum albumin
  Binding [relative units]: 0.052 relative units

B9: H7A VNAR-hFc fusion (Fc fusion)
chain: PGVDQTEQTIKKEEGESVTIKCVMRVKYPALASTSRYRKKSGSREETISKGGRYVETVNYSSKSISVRINDMTVEDSGRYRCNVYEEYAVDCDALVYQDVYGDGTAVTVNA
notes: as for B1
[1]
  Binding [relative units] (relative units): 0.043
[2]
  Binding [relative units] (relative units): 0.043
Human serum albumin
  Binding [relative units]: 0.054 relative units

B10: H8 VNAR-hFc fusion (Fc fusion)
chain: ARVDQTPQTITKETGESLTINCVLRDSNCALPSTYWYRKKSGSTNEESISKGGRYVETVNSGSKSFSLRINDLVVEDSGTYRCKVGNYCIRLCYDMKFAVDVYGGGTAVTVNA
notes: as for B1
[1]
  Binding [relative units] (relative units): 0.049
[2]
  Binding [relative units] (relative units): 0.048
Human serum albumin
  Binding [relative units]: 0.059 relative units

B11: D1 VNAR-hFc fusion (Fc fusion)
chain: ARVDQTPQTITKEEGESLTINCVLRHNYSALASTSWYRKKSGSTREETISKGGRYVETVNSGSKSFSLRINDLTVEDSGTYRCNVYGISFIEEKIRYDFDVYGDGTAVTVNA
notes: Bivalent VNAR-Fc, VNAR N-terminal to human IgG1 Fc; Expi293; also called D1-hFc; not shown: human IgG1 Fc (hinge, CH2, CH3) of vector pFUSE-hIgG1e3-Fc2
[1]
  Binding [relative units] (relative units): 0.417
[2]
  Binding [relative units] (relative units): 3.5
Human serum albumin
  Binding [relative units]: 0.074 relative units
[3]
  EC50: 190 nM
[4]
  EC50: 28 nM

B12: E12A VNAR-hFc fusion (Fc fusion)
chain: ARVDQTPQTIAREEGESVTINCVVRDSNRALASTSWCSEKYVSTREESISKGGRYVETVNSGSKSFSLRINDLTVEDSGTYRCNVYFFPSFEVDVLQTNDVYGDGTAVTVNA
notes: as for B1
[1]
  Binding [relative units] (relative units): 0.065
[2]
  Binding [relative units] (relative units): 0.049
Human serum albumin
  Binding [relative units]: 0.063 relative units

B13: F12 VNAR-hFc fusion (Fc fusion)
chain: ARVDQTPQTITKEEGESLTINCVLRVHGRALASTSWYRKKSGSTREETISKGGRYVETVNSGSKSFSLRINDLTVEDSGTYRCNVYGLSFGDIEGVKKIDVYGDGTAVTVNA
notes: Bivalent VNAR-Fc, VNAR N-terminal to human IgG1 Fc; Expi293; also called F12-hFc; clone F12; not shown: human IgG1 Fc (hinge, CH2, CH3) of vector pFUSE-hIgG1e3-Fc2
[1]
  Binding [relative units] (relative units): 0.563
[2]
  Binding [relative units] (relative units): 3.99
Human serum albumin
  Binding [relative units]: 0.112 relative units
[3]
  EC50: 72 nM
[4]
  EC50: 12 nM

B14: F1 VNAR-hFc fusion (Fc fusion)
chain: ARVDQTPQTITKEEGESLTINCVLRVHGRALASTSWYRKKSGSTREETISKGGRYVETVNSGSKSFSLRINDLTVEDSGTYRCNVYGLSSGDIEGVKKIDVYGDGTAVTVNA
notes: Bivalent VNAR-Fc, VNAR N-terminal to human IgG1 Fc; Expi293; also called Fl; not shown: human IgG1 Fc (hinge, CH2, CH3) of vector pFUSE-hIgG1e3-Fc2
[1]
  Binding [relative units] (relative units): 0.115
[2]
  Binding [relative units] (relative units): 3.76
Human serum albumin
  Binding [relative units]: 0.073 relative units
[3]
  EC50: 3860 nM
[4]
  EC50: 3 nM

B15: H12 VNAR-hFc fusion (Fc fusion)
chain: ARVDQTPQTITKEEGESLTINCVLRVHGCALASTSWYRKKSGSTREETISKGGRYVETVNSGSKSFSLRINDLTVEDSGTYRCNVYGLSFVDIEGVKKIDVYGDGTAVTVNA
notes: as for B1
[1]
  Binding [relative units] (relative units): 0.045
[2]
  Binding [relative units] (relative units): 0.046
Human serum albumin
  Binding [relative units]: 0.055 relative units

B16: G3 VNAR-hFc fusion (Fc fusion)
chain: ARVDQTPQTITKETGESLTINCVLRDNNCALSTTYWYRKKSGSTNEENISKGGRYVETVNSGSKSFSLRINDLTVEDSGTYRCKVHFFPSFCNSTSIRSVDVYGGGTVVTVNA
notes: as for B1
[1]
  Binding [relative units] (relative units): 0.041
[2]
  Binding [relative units] (relative units): 1.48
Human serum albumin
  Binding [relative units]: 0.053 relative units
[4]
  EC50: 107 nM

B17: H7 VNAR-hFc fusion (Fc fusion)
chain: ARVDQTPQTITKEEGESLTINCVLRYNNPALASTSWYRKKSGSTREETISKGGRYVETVNSGSKSFSLRINDLTVEDSGTYRCNVYFFPSFLVDKLQSHDVYGDGTAVTVNA
notes: as for B1
[1]
  Binding [relative units] (relative units): 0.108
[2]
  Binding [relative units] (relative units): 3.93
Human serum albumin
  Binding [relative units]: 0.072 relative units
[3]
  EC50: 504 nM
[4]
  EC50: 6 nM

B18: E12 VNAR-hFc fusion (Fc fusion)
chain: ARVDQTPQTITKEEGESLTINCVLRTQDPALASTSWYRKKSGSTREETISKGGRYVETVNSGSKSFSLRINDLTVEDSGTYRCNVYFLLAPTKTKLQGIDVYGDGTAVTVNA
notes: as for B1
[1]
  Binding [relative units] (relative units): 0.078
[2]
  Binding [relative units] (relative units): 2.19
Human serum albumin
  Binding [relative units]: 0.056 relative units
[3]
  EC50: 819 nM
[4]
  EC50: 56 nM
